From patent US20180050011A1

B1: pyrin domain-only protein (POP)-1 (protein, UniProt Q8WXC3 1-89, looked up)
chain: MGTKREAILKVLENLTPEELKKFKMKLGTVPLREGFERIPRGALGQLDIVDLTDKLVASYYEDYAAELVVAVLRDMRMLEEAARLQRAA

Experiments:
S100A9 (human) = biological target: T1, S100A9 (human) (UniProt P06702); assay: cell-based or functional assay
T1 sequence (looked up): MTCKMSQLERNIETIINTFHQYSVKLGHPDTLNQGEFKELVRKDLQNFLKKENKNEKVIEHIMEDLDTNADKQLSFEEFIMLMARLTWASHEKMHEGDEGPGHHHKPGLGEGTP

[1] = biological target: apoptosis-associated speck-like protein containing a caspase-recruitment domain (ASC) (human) (UniProt Q9ULZ3); assay: cell-based or functional assay
Chain of apoptosis-associated speck-like protein containing a caspase-recruitment domain (ASC) (human) (Q9ULZ3 whole entry, the tested form may be a part): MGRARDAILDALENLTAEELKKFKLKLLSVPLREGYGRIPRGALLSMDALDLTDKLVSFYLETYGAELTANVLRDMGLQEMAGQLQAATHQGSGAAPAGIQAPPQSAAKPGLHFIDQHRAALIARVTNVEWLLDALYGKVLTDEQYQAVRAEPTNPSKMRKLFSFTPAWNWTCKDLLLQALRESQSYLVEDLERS

Row | Molecule | colony-forming capacity of MDS BM-MNC (S100A9 (human)) | reduction of the fraction of pyroptotic cells, CD33+ cells (MDS BM-MNC in autologous BM plasma) (S100A9 (human)) | reduction of the fraction of pyroptotic cells, CD71+ cells (MDS BM-MNC in autologous BM plasma) (S100A9 (human)) | reduction of the fraction of pyroptotic cells, progenitor cells (MDS BM-MNC in autologous BM plasma) (S100A9 (human)) | reduction of the fraction of pyroptotic cells, stem cells (MDS BM-MNC in autologous BM plasma) (S100A9 (human)) | NLRP3 activation, as measured by ASC oligomerization (flow cytometry, U2AF1-S34F cells transfected with POP-1) [1]
1 | S100A9 high-affinity chimeric (CD33-IgG1) decoy receptor (from UniProt P20138 18-259) (Fc fusion) | < 6.6 fold | 68% | 64% | 23% | 44% | –
2 | B1 | – | – | – | – | – | 40 % reduction
